The text below walks through data of patent publication US5792742A, “Fibrin-binding peptide fragments of fibronectin” (New York University, priority 1994, dated 1998).

In experiment [1] the test system is fibrin. The experiment is described as follows: ELISA: competitive inhibition of fibronectin binding to fibrin by type 1 recombinant modules. To be noted: up to 5,000-50,000 molar excess compared to Fn. As to the method: Fibrin-binding activity was also assessed by an ELISA. Fn was reacted with fibrin-coated microtiter plates and bound Fn was determined by incubation with a polyclonal rabbit anti-Fn antiserum followed by alkaline phosphatase-labeled anti-rabbit Ig. […] Thus, on a mole-per-mole basis, assuming complete attachment of all the fibrinogen applied to the polystyrene plate, total proteolytic conversion to fibrin, and accessibility of the binding sites, 0.8 moles of Fn per mole of fibrin were required to achieve maximum binding (assuming a molecular weight of 340 kDa for the fibrin hexamer and 440 kDa for the Fn dimer).
The recombinant Fn modules were used to inhibit the binding of Fn to the fibrin-coated microtiter plates. […] At this saturating concentration, the binding of Fn to fibrin was inhibited by 70%.
On the technique in general: ELISA stands for enzyme-linked immunosorbent assay.

The test system of experiment [2] is fibrin. The note with it: Husain et al. 1981; cited from earlier work.
In experiment [3] the test system is fibrin. To be noted: 0-10 μM competitor, biotinylated Fn 2.3 nM.
Description: Since the anti-Fn detection system described for the ELISA above could not be used in Fn competition assays employing the intact Fn molecule or the 25.8 kDa proteolytic fragment, purified Fn was biotinylated using water soluble NHS-LC-Biotin (Pierce Chemm. Co.; according to the manufacturer's instructions) and binding to fibrin detected by alkaline phosphatase conjugated streptavidin (diluted 1/500 in FBBT/BSA) for 1 hour at 22° C., followed by the addition of p-nitrophenyl phosphate, as described above. To ensure that the biotinylation of the Fn had not affected its ability to bind to fibrin, fibrin-binding activity was tested by incubating increasing concentrations of biotinylated Fn (10-300 ng/0.1 ml FBB) with the fibrin-coated wells (200 ng) and detected (see FIG. 28A) using alkaline phosphatase-conjugated streptavidin and the reaction developed as described for Direct Elisa.
To compare the relative fibrin-binding affinities of the ^4 F1.^5 F1 recombinant module pair and the 25.9 kDa proteolytic fragment (^1 F1-^5 F1) with that of the native Fn molecule, these purified proteins were competed with biotinylated plasma Fn for binding to fibrin coated wells and the extent of inhibition of binding assessed by incubation with alkaline phosphatase-conjugated streptavidin. […] Biotinylated Fn (100 ng/0.1 ml FBB: 2.3 nM) was combined with increasing concentrations (0-10 μM) of either unlabeled Fn, the 25.9 kDa proteolytic fragment, or the separate ^4 F1.^5 F1, and ^10 F1 recombinant modules and incubated with the fibrin-coated microtiter wells for 1 hour at 22° C. […] Bound biotinylated Fn was quantitated as described above.
For experiment [4], the system named is fibrin. The experiment is described as follows: Fibrin-SEPHAROSE affinity chromatography (binding and elution). Further details: species or system bovine. As to the method: Bovine fibrinogen was cross-linked to CNBr-activated SEPHAROSE™ (5 mg/ml beads) according to the manufacturer's instructions. Coupled fibrinogen was subsequently converted to fibrin by incubation with human thrombin to a final concentration of 5 NIH units/ml and 100 K.I. (kallikrein inhibitory) units/ml of aprotinin (in 0.05M Tris-HCI buffer, pH 7.6, containing 0.1M NaCl and 0.01M EDTA) for three hours, at room temperature (Gold, et al. (1983) Biochemistry 22, 4113-4119).
1.0M NaCl in 0.05M tris buffer, pH 8.0.
The fibrin-binding activity of the proteolytically derived 25.9 kDa fragment of Fn was determined by its ability to bind to a fibrin affinity matrix. […] FBB was used to equilibrate and wash the column. Following warming of the column to 22° C., the column was washed with FBB until absorbance at 280 nm (A280) was less than 0.01, and bound protein eluted with 0.05M Tris-HCl, 0.5M NaCl, 6M urea buffer, pH 7.6.
The module (500 μg/1.0 ml) was incubated for 4 hours (while rotating) at 4° C. in the presence of 1.0 ml fibrin-SEPHAROSE™ (5 mg fibrin/ml SEPHAROSE™ beads) equilibrated in […] Tris-HCl, 0.1M NaCl buffer, pH 7.6.
The 11 KDa peptide (50 μg/0.206 ml) was radiolabeled using the IODO-BEAD method (Pierce Chemical). The peptide was added to one IODO-BEAD in the presence of 100 μCi ^125 I (17.4 Ci/mg, New England Nuclear) and incubated on ice for 10 minutes. […]

[ ]: non-standard residue; d: D form. pGlu = O=C1CC[C@@H](C(=O)O)N1 Bounds are passed on as bounds.

B1: ^1 F1: recombinant first type 1 module of fibronectin, amino acids 1-61 (protein)
chain: [pGlu]AQQMVQPQSPVAVSQSKPGCYDNGKHYQINQQWERTYLGNALVCTCYGGSRGFNCESKPE
modifications: not fully specified; also: major species lacks N-terminal Gln-Ala, its new N-terminal Gln3 is pyroglutamate
For the molecule B1, the “inhibition of the binding of Fn to fibrin (non-binding modules)” value in the experiment with fibrin [1] is reported as below 20%.

B2: tPA preparation of Husain et al.: high-affinity plasminogen activator preparation of Husain et al. (1981) (protein, UniProt P00750 36-562, looked up)
Tissue-type plasminogen …: SYQVICRDEKTQMIYQQHQSWLRPVLRSNRVEYCWCNSGRAQCHSVPVKSCSEPRCFNGGTCQQALYFSDFVCQCPEGFAGKCCEIDTRATCYEDQGISYRGTWSTAESGAECTNWNSSALAQKPYSGRRPDAIRLGLGNHNYCRNPDRDSKPWCYVFKAGKYSSEFCSTPACSEGNSDCYFGNGSAYRGTHSLTESGASCLPWNSMILIGKVYTAQNPSAQALGLGKHNYCRNPDGDAKPWCHVLKNRRLTWEYCDVPSCSTCGLRQYSQPQFRIKGGLFADIASHPWQAAIFAKHRRSPGERFLCGGILISSCWILSAAHCFQERFPPHHLTVILGRTYRVVPGEEEQKFEVEKYIVHKEFDDDTYDNDIALLQLKSDSSRCAQESSVVRTVCLPPADLQLPDWTECELSGYGKHEALSPFYSERLKEAHVRLYPSSRCTSQHLLNRTVTDNMLCAGDTRSGGPQANLHDACQGDSGGPLVCLNDGRMTLVGIISWGLGCGQKDVPGVYTKVTNYLDWIRDNMRP
For the molecule B2, the “arginine concentration eluting from solid phase fibrin” value in the experiment on fibrin [2] is on record as 0.2 mM.

B3: ^1 F1.^2 F1: recombinant fibronectin module pair, first and second type 1 modules, amino acids 1-106; negative control (protein)
chain: QAQQMVQPQSPVAVSQSKPGCYDNGKHYQINQQWERTYLGNALVCTCYGGSRGFNCESKPEAEETCFDKYTGNTYRVGDTYERPKDSMIWDCTCIGAGRGRISCTI
modifications: N-terminal pyroglutamate; the major species lacks the NH2-terminal Gln-Ala dipeptide and its new N-terminal Gln is also pyroglutamate
notes: recombinant fibronectin module pair, first and second type 1 modules, amino acids 1-106; negative control
As to B3, the “inhibition of the binding of Fn to fibrin (non-binding modules)” value with fibrin [1] is listed as below 20%. In addition, the “inhibition of biotinylated Fn binding (non-fibrin-binding modules)” value in the experiment on fibrin [3] came out at 15%. Moreover, in the experiment on fibrin [4], the “% of protein that did not bind to fibrin-Sepharose (unbound fraction)” value is given as around 100% and the “binding to fibrin-Sepharose” value was “none was present”.
